Residue numbers refer to the chain shown, from its start.

Assay [1] has as its target T1, human CEA protein on the cell surface (human, UniProt P06731 35-685).
T1 sequence (looked up): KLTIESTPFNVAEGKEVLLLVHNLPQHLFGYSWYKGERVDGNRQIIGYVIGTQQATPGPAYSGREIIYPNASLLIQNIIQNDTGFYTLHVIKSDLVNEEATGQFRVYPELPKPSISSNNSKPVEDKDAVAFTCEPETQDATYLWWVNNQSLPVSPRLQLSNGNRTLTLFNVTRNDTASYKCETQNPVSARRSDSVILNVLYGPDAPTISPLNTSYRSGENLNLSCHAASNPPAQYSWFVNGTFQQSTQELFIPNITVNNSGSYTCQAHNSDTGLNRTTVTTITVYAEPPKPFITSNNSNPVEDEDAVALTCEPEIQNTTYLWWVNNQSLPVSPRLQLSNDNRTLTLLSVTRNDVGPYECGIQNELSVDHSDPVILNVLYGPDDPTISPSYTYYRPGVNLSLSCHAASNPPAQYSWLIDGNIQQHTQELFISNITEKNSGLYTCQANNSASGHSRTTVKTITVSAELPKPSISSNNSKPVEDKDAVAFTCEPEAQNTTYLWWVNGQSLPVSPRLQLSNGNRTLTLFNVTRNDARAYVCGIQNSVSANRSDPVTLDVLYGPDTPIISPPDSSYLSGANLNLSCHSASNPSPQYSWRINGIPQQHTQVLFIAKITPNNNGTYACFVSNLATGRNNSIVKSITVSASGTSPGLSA
The assay can be described thus: cell-based or functional assay.

The target of assay [2] is T2, human CEACAM1 expressed on CHO cell surface (human, UniProt P13688 35-526).
T2 construct: also called CEACAM1-CHO
T2 sequence: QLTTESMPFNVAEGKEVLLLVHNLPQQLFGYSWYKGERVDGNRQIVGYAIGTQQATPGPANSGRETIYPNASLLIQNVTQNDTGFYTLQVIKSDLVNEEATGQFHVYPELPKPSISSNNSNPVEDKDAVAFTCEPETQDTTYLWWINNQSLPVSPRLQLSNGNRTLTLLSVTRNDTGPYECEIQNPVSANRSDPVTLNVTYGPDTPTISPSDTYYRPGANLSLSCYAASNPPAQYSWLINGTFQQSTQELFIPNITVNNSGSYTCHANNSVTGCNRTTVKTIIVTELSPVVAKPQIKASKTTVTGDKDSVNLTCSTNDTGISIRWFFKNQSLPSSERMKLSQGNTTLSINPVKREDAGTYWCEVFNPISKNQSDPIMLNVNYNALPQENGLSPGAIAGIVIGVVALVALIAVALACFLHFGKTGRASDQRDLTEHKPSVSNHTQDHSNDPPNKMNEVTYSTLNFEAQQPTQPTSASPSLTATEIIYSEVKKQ
The assay can be described thus: FACS, CEACAM1-CHO cells.

Assay [3] has as its target T3, monkey CEA expressed on CHO cell surface (cynomolgus monkey).
T3 construct: also called cynoCEA-CHO; monkey CEA proteins on the cell surface
T3 chain: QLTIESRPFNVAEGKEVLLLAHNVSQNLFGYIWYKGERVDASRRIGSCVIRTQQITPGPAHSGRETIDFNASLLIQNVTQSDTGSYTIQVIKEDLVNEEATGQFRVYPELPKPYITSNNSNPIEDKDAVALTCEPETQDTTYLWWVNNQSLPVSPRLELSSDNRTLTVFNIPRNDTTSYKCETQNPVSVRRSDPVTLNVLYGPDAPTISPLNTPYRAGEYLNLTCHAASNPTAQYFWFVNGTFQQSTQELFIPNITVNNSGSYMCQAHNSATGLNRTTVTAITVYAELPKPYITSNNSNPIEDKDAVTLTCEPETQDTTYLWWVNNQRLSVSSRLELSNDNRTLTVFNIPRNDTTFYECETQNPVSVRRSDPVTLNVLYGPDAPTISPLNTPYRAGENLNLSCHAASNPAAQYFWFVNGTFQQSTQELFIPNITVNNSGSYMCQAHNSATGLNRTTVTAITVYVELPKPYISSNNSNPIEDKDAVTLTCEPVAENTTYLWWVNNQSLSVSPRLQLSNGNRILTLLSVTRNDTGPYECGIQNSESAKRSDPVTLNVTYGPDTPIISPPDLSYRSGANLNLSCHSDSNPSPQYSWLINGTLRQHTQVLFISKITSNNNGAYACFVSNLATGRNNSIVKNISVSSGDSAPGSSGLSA
The assay can be described thus: FACS, cynoCEA-CHO cells. Here is the method: (§1) In order to detect the binding of the antibody to the CEA protein on the cell surface, the binding activity of the antibody was determined by FACS using cells expressing CEA on the cell surface. Cells were harvested and centrifuged at 400 g at 4° C. for 5 min. Pre-cooled PBS containing FBS at final concentration 10% was added, and the mixture was centrifuged at 400 g at 4° C. for 5 min; the procedures were repeated twice. The cells were seeded into a 96-well plate at 10⁵ cells/well, and 100 μL of gradient diluted antibody solution was added to each well. The plate was incubated at 4° C. for 60 min and centrifuged, and the supernatant was removed. 250 μL of pre-cooled PBS containing FBS at final concentration 10% was added to each well to resuspend the cells, and the suspension was centrifuged at 400 g at 4° C. for 5 min, followed by the removal of the supernatant; the procedures were repeated twice. 50 μL of 1:200 diluted secondary antibody Alexa Fluor@488 goat anti-human IgG (H+L) (Lifetechologies, Cat #A11013) was added. […] 250 μL of pre-cooled PBS containing FBS at final concentration 10% was added to each cell to resuspend the cells, and the suspension was centrifuged at 400 g at 4° C. for 5 min; the procedures were repeated twice. 100 μL of pre-cooled PBS was added to each well to resuspend the cells. The plate was analyzed by a flow cytometer (BD, FACSverse) for fluorescence signal values.

The target in assay [4] is T1, human CEA protein on the cell surface. The assay can be described thus: FACS, MKN45 cells. As for the experimental part: as §1

B1: Hu103-32-2-A (DAR 6.94) (antibody, human IgG1, lambda, V domains shown)
VH: EVQLVQSGSELKKPGASVKVSCKASGYTFTTYGVIWVRQAPGQGLEWMGWINTYSGVPTYASDFKGRFVFSLDTSVSTAYLQISSLKAEDTAVYYCARKKTLTTVTPWFAYWGQGTLVTVSS
VL: ELVLTQSPSASASLGASVKLTCTLSSQHSTYTIEWYQQQPEKGPRYVMELKKDGSHSTGEGIPDRFSGSSSGAERYLTISSLQSEDEADYYCGVGNTIKEQFVYVFGGGTKLTVLG
modifications: see heavy chain; linker-toxin 2-A coupled to cysteine thiols of the TCEP-reduced antibody; mean DAR 6.94 per antibody
Take B1: in assay [1], the “IC50 of inhibition of cell proliferation, LS174T (with moderate CEA expression)” value turned out to be 2.37 nM and the “IC50 of inhibition of cell proliferation, MKN45 (with high CEA expression)” value (from here on “IC50 of inhibition … (with high CEA expression)”) came out at 3 nM.

B2: Hu103-32-2-A (DAR 4.8) (antibody, human IgG1, lambda, V domains shown)
VH: B1 VH
VL: B1 VL
modifications: see heavy chain; linker-toxin 2-A coupled to cysteine thiols of the TCEP-reduced antibody; mean DAR 4.8 per antibody
With B2, in assay [1], the “IC50 of inhibition of cell proliferation, LS174T (with moderate CEA expression)” value is 3.08 nM and the “IC50 of inhibition … (with high CEA expression)” value amounted to 2.86 nM.

B3: Hu47-14-2-A (DAR 6.6) (antibody, human IgG1, kappa, V domains shown)
VH: EVQLVQSGSELKKPGASVKVSCKASGYTFTTYGMSWVKQAPGQGLKWMGWINTYSGVPTYASDFKGRFVFSLDTSVSTAYLQISSLKAEDTAVYYCARRGNYGRWDFDVWGQGTTVTVSS
VL: EIVLTQSPDFQSVTPKEKVTITCSVSSTISSSNLHWYQQKPDQSPKPLIYGTSNLASGVPSRFSGSGSGTDYTLTINSLEAEDAATYYCQQWSIYPLTFGQGTKLEIKR
modifications: see heavy chain; linker-toxin 2-A coupled to cysteine thiols of the TCEP-reduced antibody; mean DAR 6.6 per antibody
Consider B3, for which, in assay [1], the “IC50 of inhibition of cell proliferation, LS174T (with moderate CEA expression)” value is 10.3 nM and the “IC50 of inhibition … (with high CEA expression)” value amounted to 6.58 nM.

B4: antibody in SAR-408701 (antibody, human IgG1, kappa, V domains shown)
VH: EVQLQESGPGLVKPGGSLSLSCAASGFVFSSYDMSWVRQTPERGLEWVAYISSGGGITYAPSTVKGRFTVSRDNAKNTLYLQMNSLTSEDTAVYYCAAHYFGSSGPFAYWGQGTLVTVSS
VL: DIQMTQSPASLSASVGDRVTITCRASENIFSYLAWYQQKPGKSPKLLVYNTRTLAEGVPSRFSGSGSGTDFSLTISSLQPEDFATYYCQHHYGTPFTFGSGTKLEIKR
notes: Positive control antibody; also called Sanofi
Take B4: the binding result in assay [2] is “no binding”. The same molecule yielded an EC50 in assay [3] of 17.3 nM.

B5: Hu67-14-2-A (DAR 6.41) (antibody, human IgG1, kappa, V domains shown)
VH: EVQLVQSGAEVKKPGESLKISCKGSGYSFTDYHMNWVKQMPGKGLEWMGDINPDIGGTSYNQNFKGKVTISVDKSISTAYLQWSSLKASDTAMYYCARWDFDSFANWGQGTLVTVSS
VL: DIQMTQSPSSLSASVGDRVTITCRASESVSIIGTNLIHWYQQKPGKAPKLLIYHASNLETGVPSRFSGSGSGTDFTLTISSLQPEDFATYYCLQSRKIPYTFGGGTKVEIKR
modifications: see heavy chain; linker-toxin 2-A coupled to cysteine thiols of the TCEP-reduced antibody; mean DAR 6.41 per antibody
Turning to B5, in assay [1], the “IC50 of inhibition of cell proliferation, LS174T (with moderate CEA expression)” value worked out at 9.24 nM and the “IC50 of inhibition … (with high CEA expression)” value was determined as 3.33 nM.

B6: Hu67-9 (antibody, human IgG1, kappa, V domains shown)
VH: B5 VH with K38R, K67Q, V72A
VL: B5 VL
On to B6, for which the EC50 in assay [3] was 3.72 nM; in assay [4], 3.75 nM.

B7: Hu67-5 (antibody, human IgG1, kappa, V domains shown)
VH: EVQLVQSGAEVKKPGASVKVSCKASGYTFTDYHMNWVRQAPGQRLEWMGDINPDIGGTSYNQNFKGRVTITRDTSASTAYMELSSLRSEDTAVYYCARWDFDSFANWGQGTLVTVSS
VL: B5 VL with Q3V, A47P
As for B7, the EC50 is 3.5 nM in assay [3] and 2.86 nM in assay [4].

B8: Hu67-14-2-A (DAR 4.28) (antibody, human IgG1, kappa, V domains shown)
VH: B5 VH
VL: B5 VL
modifications: see heavy chain; linker-toxin 2-A coupled to cysteine thiols of the TCEP-reduced antibody; mean DAR 4.28 per antibody
On to B8, for which, in assay [1], the “IC50 of inhibition of cell proliferation, LS174T (with moderate CEA expression)” value was 15.6 nM and the “IC50 of inhibition … (with high CEA expression)” value was determined as 9.39 nM.

B9: Hu67-10 (antibody, human IgG1, kappa, V domains shown)
VH: B5 VH with K38R, K67Q, V72A
VL: B5 VL with Q3V, A47P
Consider B9, for which the EC50 is 5.37 nM in assay [3] and 3.19 nM in assay [4].

B10: Hu67-4 (antibody, human IgG1, kappa, V domains shown)
VH: B7 VH
VL: B5 VL
As for B10, the EC50 in assay [3] worked out at 3.06 nM; in assay [4], 3.25 nM.

B11: Hu67-1 (antibody, human IgG1, kappa, V domains shown)
VH: B7 VH
VL: DIVMTQSPDSLAVSLGERATINCRASESVSIIGTNLIHWYQQKPGQPPKLLIYHASNLETGVPDRFSGSGSGTDFTLTISSLQAEDVAVYYCLQSRKIPYTFGGGTKVEIKR
For B11, the EC50 in assay [3] stood at 4.57 nM; in assay [4], 2.46 nM.

B12: Hu63-13-2-A (DAR 3.97) (antibody, human IgG1, kappa, V domains shown)
VH: EVQLVQSGAEVKKPGASVKVSCKASGYTFTDFYMNWVRQAPGQGLEWMGDIFPKSGNTDYNRKFKDRVTMTRDTSTSTVYMELSSLRSEDTAVYYCARSGYGNYVFDYWGQGTLVTVSS
VL: DIQMTQSPSSLSASVGDRVTITCRTSQDINIYLNWYQQKPGKAPKLLIYYRSGLLSGVPSRFSGSGSGTDFTLTISSLQPEDFATYYCQQGNTLPPTFGGGTKVEIKR
modifications: see heavy chain; linker-toxin 2-A coupled to cysteine thiols of the TCEP-reduced antibody; mean DAR 3.97 per antibody
Turning to B12, in assay [1], the “IC50 of inhibition of cell proliferation, LS174T (with moderate CEA expression)” value is 19.8 nM and the “IC50 of inhibition … (with high CEA expression)” value came to 34 nM.

B13: Hu63-13-2-A (DAR 6.29) (antibody, human IgG1, kappa, V domains shown)
VH: B12 VH
VL: B12 VL
modifications: see heavy chain; linker-toxin 2-A coupled to cysteine thiols of the TCEP-reduced antibody; mean DAR 6.29 per antibody
As to B13, in assay [1], the “IC50 of inhibition of cell proliferation, LS174T (with moderate CEA expression)” value worked out at 13.1 nM and the “IC50 of inhibition … (with high CEA expression)” value is 3.93 nM.

Values taken from patent publication US20230055408A1 (JIANGSU HENGRUI MEDICINE, published 2023).
